Values quoted from earlier work in paper PMC3899951.

Assays:
[1] = molecular target: histone H4 singly acetylated peptide (Homo sapiens) (UniProt P62805)
[2] = molecular target: histone H4 K5,8,12,16ac peptide (Homo sapiens) (UniProt P62805)

Kd [1]: 39 µM
Kd [2]: 5 µM
Substance: TAFII250 tandem bromodomain (from UniProt P21675)
